From the supplement of paper PMC10567573

B1: RSPH3 (parent)
chain: QRLEEQERRHREEKERRKKQQWEI

Variants of: B1
Assay: protein stability index of a GFP-peptide fusion (GPS, HEK-293T) (PSI 1-6); higher = more stable
Conditions: c terminus: a fixed tail appended
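Further: lentivirally expressed fusions sorted by FACS into six bins by GFP to DsRed ratio, PSI derived from sequencing read proportions per bin multiplied by bin number.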

**Q.** Which protein stability index does the source give for QRLEEQERRHRAEKERRKKQQWEI [E12A] here?
**A.** 4.84

**Q.** With QRLEEQERRHRCEKERRKKQQWEI [E12C] as the variant, how does the protein stability index read?
**A.** 4.32

**Q.** With QRLEEQERRHRDEKERRKKQQWEI [E12D] as the variant, how does the protein stability index read?
**A.** 5

**Q.** With QRLEEQERRHRGEKERRKKQQWEI [E12G] as the variant, how does the protein stability index read?
**A.** 4.36

**Q.** For QRLEEQERRHRHEKERRKKQQWEI [E12H], which protein stability index is on record?
**A.** 4.03

**Q.** For QRLEEQERRHRIEKERRKKQQWEI [E12I], which protein stability index is on record?
**A.** 3.64

**Q.** For QRLEEQERRHRKEKERRKKQQWEI [E12K], which protein stability index is on record?
**A.** 3.58

**Q.** Which protein stability index does the source give for QRLEEQERRHRLEKERRKKQQWEI [E12L] here?
**A.** 4.42

**Q.** Which protein stability index does the source give for QRLEEQERRHRNEKERRKKQQWEI [E12N] here?
**A.** 4.57

**Q.** For QRLEEQERRHRPEKERRKKQQWEI [E12P], which protein stability index is on record?
**A.** 4.07

**Q.** Which protein stability index does the source give for QRLEEQERRHRQEKERRKKQQWEI [E12Q] here?
**A.** 4.2

**Q.** For QRLEEQERRHRREKERRKKQQWEI [E12R], which protein stability index is on record?
**A.** 4.37

**Q.** For QRLEEQERRHRSEKERRKKQQWEI [E12S], which protein stability index is on record?
**A.** 3.99

**Q.** For QRLEEQERRHRTEKERRKKQQWEI [E12T], which protein stability index is on record?
**A.** 4.28

**Q.** With QRLEEQERRHRVEKERRKKQQWEI [E12V] as the variant, how does the protein stability index read?
**A.** 4.5

**Q.** For QRLEEQERRHRWEKERRKKQQWEI [E12W], which protein stability index is on record?
**A.** 2.58

**Q.** For QRLEEQERRHRYEKERRKKQQWEI [E12Y], which protein stability index is on record?
**A.** 3.78

**Q.** Which protein stability index does the source give for QRLEEQERRHREAKERRKKQQWEI [E13A] here?
**A.** 3.79

**Q.** Which protein stability index does the source give for QRLEEQERRHRECKERRKKQQWEI [E13C] here?
**A.** 3.82

**Q.** Which protein stability index does the source give for QRLEEQERRHREDKERRKKQQWEI [E13D] here?
**A.** 4.74

**Q.** Which protein stability index does the source give for QRLEEQERRHREFKERRKKQQWEI [E13F] here?
**A.** 3.72

**Q.** With QRLEEQERRHREGKERRKKQQWEI [E13G] as the variant, how does the protein stability index read?
**A.** 4.55

**Q.** For QRLEEQERRHREHKERRKKQQWEI [E13H], which protein stability index is on record?
**A.** 4.19

**Q.** With QRLEEQERRHREIKERRKKQQWEI [E13I] as the variant, how does the protein stability index read?
**A.** 3.88

**Q.** Which protein stability index does the source give for QRLEEQERRHREKKERRKKQQWEI [E13K] here?
**A.** 4.17

**Q.** Which protein stability index does the source give for QRLEEQERRHRELKERRKKQQWEI [E13L] here?
**A.** 3.95

**Q.** For QRLEEQERRHREMKERRKKQQWEI [E13M], which protein stability index is on record?
**A.** 3.99

**Q.** For QRLEEQERRHRENKERRKKQQWEI [E13N], which protein stability index is on record?
**A.** 4.16

**Q.** For QRLEEQERRHREPKERRKKQQWEI [E13P], which protein stability index is on record?
**A.** 4.06

**Q.** For QRLEEQERRHREQKERRKKQQWEI [E13Q], which protein stability index is on record?
**A.** 4.52

**Q.** For QRLEEQERRHRERKERRKKQQWEI [E13R], which protein stability index is on record?
**A.** 4.47

**Q.** With QRLEEQERRHRESKERRKKQQWEI [E13S] as the variant, how does the protein stability index read?
**A.** 4.02

**Q.** With QRLEEQERRHRETKERRKKQQWEI [E13T] as the variant, how does the protein stability index read?
**A.** 4.32

**Q.** Which protein stability index does the source give for QRLEEQERRHREVKERRKKQQWEI [E13V] here?
**A.** 4.14

**Q.** Which protein stability index does the source give for QRLEEQERRHREWKERRKKQQWEI [E13W] here?
**A.** 3.34

**Q.** For QRLEEQERRHREYKERRKKQQWEI [E13Y], which protein stability index is on record?
**A.** 3.77

**Q.** With QRLEEQERRHREEAERRKKQQWEI [K14A] as the variant, how does the protein stability index read?
**A.** 4.83

**Q.** Which protein stability index does the source give for QRLEEQERRHREECERRKKQQWEI [K14C] here?
**A.** 4.63

**Q.** Which protein stability index does the source give for QRLEEQERRHREEDERRKKQQWEI [K14D] here?
**A.** 4.65

**Q.** With QRLEEQERRHREEEERRKKQQWEI [K14E] as the variant, how does the protein stability index read?
**A.** 5.13

**Q.** Which protein stability index does the source give for QRLEEQERRHREEFERRKKQQWEI [K14F] here?
**A.** 4.69

**Q.** Which protein stability index does the source give for QRLEEQERRHREEGERRKKQQWEI [K14G] here?
**A.** 5.25

**Q.** For QRLEEQERRHREEHERRKKQQWEI [K14H], which protein stability index is on record?
**A.** 4.73

**Q.** With QRLEEQERRHREEIERRKKQQWEI [K14I] as the variant, how does the protein stability index read?
**A.** 3.76

**Q.** For QRLEEQERRHREELERRKKQQWEI [K14L], which protein stability index is on record?
**A.** 3.94

**Q.** Which protein stability index does the source give for QRLEEQERRHREEMERRKKQQWEI [K14M] here?
**A.** 4.25

**Q.** For QRLEEQERRHREENERRKKQQWEI [K14N], which protein stability index is on record?
**A.** 4.87

**Q.** For QRLEEQERRHREEPERRKKQQWEI [K14P], which protein stability index is on record?
**A.** 4.55

**Q.** Which protein stability index does the source give for QRLEEQERRHREEQERRKKQQWEI [K14Q] here?
**A.** 4.26

**Q.** For QRLEEQERRHREERERRKKQQWEI [K14R], which protein stability index is on record?
**A.** 4.15

**Q.** With QRLEEQERRHREESERRKKQQWEI [K14S] as the variant, how does the protein stability index read?
**A.** 3.26

**Q.** With QRLEEQERRHREETERRKKQQWEI [K14T] as the variant, how does the protein stability index read?
**A.** 4.08

**Q.** Which protein stability index does the source give for QRLEEQERRHREEVERRKKQQWEI [K14V] here?
**A.** 4.72

**Q.** With QRLEEQERRHREEWERRKKQQWEI [K14W] as the variant, how does the protein stability index read?
**A.** 4.45

**Q.** For QRLEEQERRHREEYERRKKQQWEI [K14Y], which protein stability index is on record?
**A.** 4.34

**Q.** Which protein stability index does the source give for QRLEEQERRHREEKARRKKQQWEI [E15A] here?
**A.** 4.44

**Q.** With QRLEEQERRHREEKCRRKKQQWEI [E15C] as the variant, how does the protein stability index read?
**A.** 3.74

**Q.** For QRLEEQERRHREEKDRRKKQQWEI [E15D], which protein stability index is on record?
**A.** 4.68

**Q.** With QRLEEQERRHREEKFRRKKQQWEI [E15F] as the variant, how does the protein stability index read?
**A.** 3.92

**Q.** For QRLEEQERRHREEKGRRKKQQWEI [E15G], which protein stability index is on record?
**A.** 4.36

**Q.** For QRLEEQERRHREEKHRRKKQQWEI [E15H], which protein stability index is on record?
**A.** 3.91

**Q.** With QRLEEQERRHREEKIRRKKQQWEI [E15I] as the variant, how does the protein stability index read?
**A.** 4.09

**Q.** For QRLEEQERRHREEKKRRKKQQWEI [E15K], which protein stability index is on record?
**A.** 4.74

**Q.** Which protein stability index does the source give for QRLEEQERRHREEKLRRKKQQWEI [E15L] here?
**A.** 4.63

**Q.** For QRLEEQERRHREEKMRRKKQQWEI [E15M], which protein stability index is on record?
**A.** 4.02

**Q.** Which protein stability index does the source give for QRLEEQERRHREEKNRRKKQQWEI [E15N] here?
**A.** 5.12

**Q.** For QRLEEQERRHREEKPRRKKQQWEI [E15P], which protein stability index is on record?
**A.** 3.62

**Q.** For QRLEEQERRHREEKQRRKKQQWEI [E15Q], which protein stability index is on record?
**A.** 4.85

**Q.** With QRLEEQERRHREEKRRRKKQQWEI [E15R] as the variant, how does the protein stability index read?
**A.** 3.75

**Q.** With QRLEEQERRHREEKSRRKKQQWEI [E15S] as the variant, how does the protein stability index read?
**A.** 4.58

**Q.** With QRLEEQERRHREEKTRRKKQQWEI [E15T] as the variant, how does the protein stability index read?
**A.** 4.7

**Q.** For QRLEEQERRHREEKVRRKKQQWEI [E15V], which protein stability index is on record?
**A.** 4.14

**Q.** Which protein stability index does the source give for QRLEEQERRHREEKWRRKKQQWEI [E15W] here?
**A.** 3.18

**Q.** With QRLEEQERRHREEKYRRKKQQWEI [E15Y] as the variant, how does the protein stability index read?
**A.** 3.09

**Q.** With QRLEEQERRHREEKEARKKQQWEI [R16A] as the variant, how does the protein stability index read?
**A.** 4.5

**Q.** With QRLEEQERRHREEKECRKKQQWEI [R16C] as the variant, how does the protein stability index read?
**A.** 5.12

**Q.** For QRLEEQERRHREEKEDRKKQQWEI [R16D], which protein stability index is on record?
**A.** 5.37

**Q.** For QRLEEQERRHREEKEERKKQQWEI [R16E], which protein stability index is on record?
**A.** 5.23

**Q.** Which protein stability index does the source give for QRLEEQERRHREEKEFRKKQQWEI [R16F] here?
**A.** 4.06

**Q.** Which protein stability index does the source give for QRLEEQERRHREEKEGRKKQQWEI [R16G] here?
**A.** 4.84

**Q.** For QRLEEQERRHREEKEHRKKQQWEI [R16H], which protein stability index is on record?
**A.** 4.77

**Q.** Which protein stability index does the source give for QRLEEQERRHREEKEIRKKQQWEI [R16I] here?
**A.** 5

**Q.** For QRLEEQERRHREEKEKRKKQQWEI [R16K], which protein stability index is on record?
**A.** 4.57

**Q.** Which protein stability index does the source give for QRLEEQERRHREEKELRKKQQWEI [R16L] here?
**A.** 4.67

**Q.** Which protein stability index does the source give for QRLEEQERRHREEKEMRKKQQWEI [R16M] here?
**A.** 5.04

**Q.** With QRLEEQERRHREEKENRKKQQWEI [R16N] as the variant, how does the protein stability index read?
**A.** 4.82

**Q.** With QRLEEQERRHREEKEPRKKQQWEI [R16P] as the variant, how does the protein stability index read?
**A.** 4.97

**Q.** Which protein stability index does the source give for QRLEEQERRHREEKEQRKKQQWEI [R16Q] here?
**A.** 4.75

**Q.** With QRLEEQERRHREEKESRKKQQWEI [R16S] as the variant, how does the protein stability index read?
**A.** 4.9

**Q.** For QRLEEQERRHREEKETRKKQQWEI [R16T], which protein stability index is on record?
**A.** 5.11

**Q.** Which protein stability index does the source give for QRLEEQERRHREEKEVRKKQQWEI [R16V] here?
**A.** 5.18

**Q.** For QRLEEQERRHREEKEWRKKQQWEI [R16W], which protein stability index is on record?
**A.** 4.02

**Q.** For QRLEEQERRHREEKEYRKKQQWEI [R16Y], which protein stability index is on record?
**A.** 4.74

**Q.** For QRLEEQERRHREEKERAKKQQWEI [R17A], which protein stability index is on record?
**A.** 4.94
